Data from article PMC8100514.

Molecular target: β-tubulin, endogenous in HeLa cells (human (endogenous in HeLa)) (UniProt P07437)
Test: native gel or EMSA; soluble native extracts of HeLa cells treated with 5 uM colchicine for 60 min (30 ug) on 6% non-denaturing PAGE, western blot with anti-TBCA; level of the complex relative to control cells (100%)

Sequence of UniProt P07437 (P07437 whole entry): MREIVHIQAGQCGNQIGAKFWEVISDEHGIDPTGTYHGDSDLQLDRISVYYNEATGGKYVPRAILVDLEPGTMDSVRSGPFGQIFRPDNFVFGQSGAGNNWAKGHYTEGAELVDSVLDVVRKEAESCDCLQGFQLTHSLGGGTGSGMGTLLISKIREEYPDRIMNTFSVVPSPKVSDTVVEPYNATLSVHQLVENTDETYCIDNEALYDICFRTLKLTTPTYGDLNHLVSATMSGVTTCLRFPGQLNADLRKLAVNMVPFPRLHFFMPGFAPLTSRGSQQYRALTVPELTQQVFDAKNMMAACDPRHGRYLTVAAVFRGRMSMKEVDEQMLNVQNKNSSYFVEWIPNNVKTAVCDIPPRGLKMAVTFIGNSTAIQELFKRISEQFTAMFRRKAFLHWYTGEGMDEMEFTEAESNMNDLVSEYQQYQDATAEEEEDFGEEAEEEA

B1: tubulin cofactor A (TBCA), endogenous in HeLa cells (natural protein)
chain: MADPRVRQIKIKTGVVKRLVKEKVMYEKEAKQQEEKIEKMRAEDGENYDIKKQAEILQESRMMIPDCQRRLEAAYLDLQRILENEKDLEEAEEYKEARLVLDSVKLEA
  level of the TBCA/β-tubulin complex, percent of control cells: 18%
